According to patent publication US20260022195A1:

Target: T1, human C1s (active form) (human) (UniProt P09871)
T1 sequence 1: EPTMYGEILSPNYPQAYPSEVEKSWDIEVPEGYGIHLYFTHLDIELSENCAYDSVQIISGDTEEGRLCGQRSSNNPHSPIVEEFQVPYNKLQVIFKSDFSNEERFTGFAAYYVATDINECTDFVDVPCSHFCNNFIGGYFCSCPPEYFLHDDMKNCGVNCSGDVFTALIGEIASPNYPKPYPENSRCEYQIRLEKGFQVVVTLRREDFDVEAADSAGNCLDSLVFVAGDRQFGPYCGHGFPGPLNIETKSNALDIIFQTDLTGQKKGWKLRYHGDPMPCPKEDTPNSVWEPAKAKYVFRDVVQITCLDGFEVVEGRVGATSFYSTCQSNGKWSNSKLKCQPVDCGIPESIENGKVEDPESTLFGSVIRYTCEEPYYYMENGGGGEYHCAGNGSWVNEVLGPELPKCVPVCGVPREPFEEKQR
T1 sequence 2: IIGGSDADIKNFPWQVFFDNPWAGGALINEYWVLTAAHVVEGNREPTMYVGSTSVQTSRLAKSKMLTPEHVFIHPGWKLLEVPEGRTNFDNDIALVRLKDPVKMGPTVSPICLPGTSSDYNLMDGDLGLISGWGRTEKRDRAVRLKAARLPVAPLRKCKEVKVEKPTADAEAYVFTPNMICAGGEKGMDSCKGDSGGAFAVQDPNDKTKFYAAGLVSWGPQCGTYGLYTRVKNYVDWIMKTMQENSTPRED
Assay: cell-based or functional assay

B1: TNT020 (antibody, from another filing, V domains shown)
VH: QVQLVQSGAEVKKPGASVKLSCTASGFNIKDDYIHWVKQAPGQGLEWIGRIDPADGHTKYAPKFQVKVTITADTSTSTAYLELSSLRSEDTAVYYCARYGYGREVFDYWGQGTTVTVSS
VL: DIVLTQSPDSLAVSLGERATISCKASQSVDYDGDSYMNWYQQKPGQPPKILIYDASNLESGIPARFSGSGSGTDFTLTISSLEPEDFAIYYCQQSNEDPWTFGGGTKVEIKR
  IC50 of inhibition of C3b deposition on antibody-sensitized human RBCs (flow cytometry, 5% human serum): 6.5 nM

B2: TNT009 (antibody, from another filing, V domains shown)
VH: EVQLVESGGGLVKPGGSLRLSCAASGFTFSNYAMSWVRQAPGKGLEWVATISSGGSHTYYLDSVKGRFTISRDNSKNTLYLQMNSLRAEDTALYYCARLFTGYAMDYWGQGTLVTVSS
VL: QIVLTQSPATLSLSPGERATMSCTASSSVSSSYLHWYQQKPGKAPKLWIYSTSNLASGVPSRFSGSGSGTDYTLTISSLQPEDFATYYCHQYYRLPPITFGQGTKLEIKR
  IC50 of inhibition of C3b deposition on antibody-sensitized human RBCs (flow cytometry, 5% human serum): 5 nM
